# B1: SF3B1 (protein, UniProt O75533 1-1304, looked up)
# Splicing factor 3B subunit 1: MAKIAKTHEDIEAQIREIQGKKAALDEAQGVGLDSTGYYDQEIYGGSDSRFAGYVTSIAATELEDDDDDYSSSTSLLGQKKPGYHAPVALLNDIPQSTEQYDPFAEHRPPKIADREDEYKKHRRTMIISPERLDPFADGGKTPDPKMNARTYMDVMREQHLTKEEREIRQQLAEKAKAGELKVVNGAAASQPPSKRKRRWDQTADQTPGATPKKLSSWDQAETPGHTPSLRWDETPGRAKGSETPGATPGSKIWDPTPSHTPAGAATPGRGDTPGHATPGHGGATSSARKNRWDETPKTERDTPGHGSGWAETPRTDRGGDSIGETPTPGASKRKSRWDETPASQMGGSTPVLTPGKTPIGTPAMNMATPTPGHIMSMTPEQLQAWRWEREIDERNRPLSDEELDAMFPEGYKVLPPPAGYVPIRTPARKLTATPTPLGGMTGFHMQTEDRTMKSVNDQPSGNLPFLKPDDIQYFDKLLVDVDESTLSPEEQKERKIMKLLLKIKNGTPPMRKAALRQITDKAREFGAGPLFNQILPLLMSPTLEDQERHLLVKVIDRILYKLDDLVRPYVHKILVVIEPLLIDEDYYARVEGREIISNLAKAAGLATMISTMRPDIDNMDEYVRNTTARAFAVVASALGIPSLLPFLKAVCKSKKSWQARHTGIKIVQQIAILMGCAILPHLRSLVEIIEHGLVDEQQKVRTISALAIAALAEAATPYGIESFDSVLKPLWKGIRQHRGKGLAAFLKAIGYLIPLMDAEYANYYTREVMLILIREFQSPDEEMKKIVLKVVKQCCGTDGVEANYIKTEILPPFFKHFWQHRMALDRRNYRQLVDTTVELANKVGAAEIISRIVDDLKDEAEQYRKMVMETIEKIMGNLGAADIDHKLEEQLIDGILYAFQEQTTEDSVMLNGFGTVVNALGKRVKPYLPQICGTVLWRLNNKSAKVRQQAADLISRTAVVMKTCQEEKLMGHLGVVLYEYLGEEYPEVLGSILGALKAIVNVIGMHKMTPPIKDLLPRLTPILKNRHEKVQENCIDLVGRIADRGAEYVSAREWMRICFELLELLKAHKKAIRRATVNTFGYIAKAIGPHDVLATLLNNLKVQERQNRVCTTVAIAIVAETCSPFTVLPALMNEYRVPELNVQNGVLKSLSFLFEYIGEMGKDYIYAVTPLLEDALMDRDLVHRQTASAVVQHMSLGVYGFGCEDSLNHLLNYVWPNVFETSPHVIQAVMGALEGLRVAIGPCRMLQYCLQGLFHPARKVRDVYWKIYNSIYIGSQDALIAHYPRIYNDDKNTYIRYELDYIL
# B2: U2AF1 (protein, UniProt Q01081 2-240, looked up)
# Splicing factor U2AF 35 kDa …: AEYLASIFGTEKDKVNCSFYFKIGACRHGDRCSRLHNKPTFSQTIALLNIYRNPQNSSQSADGLRCAVSDVEMQEHYDEFFEEVFTEMEEKYGEVEEMNVCDNLGDHLVGNVYVKFRREEDAEKAVIDLNNRWFNGQPIHAELSPVTDFREACCRQYEMGECTRGGFCNFMHLKPISRELRRELYGRRRKKHRSRSRSRERRSRSRDRGRGGGGGGGGGGGGRERDRRRSRDRERSGRF
# B3: DENR (protein, UniProt O43583 2-198, looked up)
# Density-regulated protein: AADISESSGADCKGDPRNSAKLDADYPLRVLYCGVCSLPTEYCEYMPDVAKCRQWLEKNFPNEFAKLTVENSPKQEAGISEGQGTAGEEEEKKKQKRGGRGQIKQKKKTVPQKVTIAKIPRAKKKYVTRVCGLATFEIDLKEAQRFFAQKFSCGASVTGEDEIIIQGDFTDDIIDVIQEKWPEVDDDSIEDLGEVKK
# B4: DCAF7 (protein, UniProt P61962 1-342, looked up)
# DDB1- and CUL4-associated …: MSLHGKRKEIYKYEAPWTVYAMNWSVRPDKRFRLALGSFVEEYNNKVQLVGLDEESSEFICRNTFDHPYPTTKLMWIPDTKGVYPDLLATSGDYLRVWRVGETETRLECLLNNNKNSDFCAPLTSFDWNEVDPYLLGTSSIDTTCTIWGLETGQVLGRVNLVSGHVKTQLIAHDKEVYDIAFSRAGGGRDMFASVGADGSVRMFDLRHLEHSTIIYEDPQHHPLLRLCWNKQDPNYLATMAMDGMEVVILDVRVPCTPVARLNNHRACVNGIAWAPHSSCHICTAADDHQALIWDIQQMPRAIEDPILAYTAEGEINNVQWASTQPDWIAICYNNCLEILRV
# Legend:
# G9a and GLP = target: T1, G9a and GLP (Homo sapiens, UniProt Q96KQ7+Q9H9B1); experiment: Triple SILAC pull-down after UNC0638 treatment of 293T cells, DMSO/UNC0638 ratio of protein captured by 3×MBT; type: cell-based; parameters: endogenous in cells; host or cells: HEK 293T; details: for Relative to UNC0638 UNC Heavy / Relative to UNC0638 UNC Light: SILAC ratio DMSO/UNC0638 of protein pulled down with 3xMBT; for Relative to UNC0638 UNC Heavy: UNC0638 in heavy SILAC media; for Relative to UNC0638 UNC Light: UNC0638 in light SILAC media; for Relative to UNC0638 Average: average of UNC Light and UNC Heavy experiments;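 as to all read-outs here: mass spectrometry (Q-Exactive) SILAC quantitation, DMSO/UNC0638 ratio computed after subtracting 3×MBTD355N mutant pull-down background, only proteins with at least twofold 3×MBT over mutant signal considered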
# T1 sequence (Q96KQ7 2-1210 limits assumed): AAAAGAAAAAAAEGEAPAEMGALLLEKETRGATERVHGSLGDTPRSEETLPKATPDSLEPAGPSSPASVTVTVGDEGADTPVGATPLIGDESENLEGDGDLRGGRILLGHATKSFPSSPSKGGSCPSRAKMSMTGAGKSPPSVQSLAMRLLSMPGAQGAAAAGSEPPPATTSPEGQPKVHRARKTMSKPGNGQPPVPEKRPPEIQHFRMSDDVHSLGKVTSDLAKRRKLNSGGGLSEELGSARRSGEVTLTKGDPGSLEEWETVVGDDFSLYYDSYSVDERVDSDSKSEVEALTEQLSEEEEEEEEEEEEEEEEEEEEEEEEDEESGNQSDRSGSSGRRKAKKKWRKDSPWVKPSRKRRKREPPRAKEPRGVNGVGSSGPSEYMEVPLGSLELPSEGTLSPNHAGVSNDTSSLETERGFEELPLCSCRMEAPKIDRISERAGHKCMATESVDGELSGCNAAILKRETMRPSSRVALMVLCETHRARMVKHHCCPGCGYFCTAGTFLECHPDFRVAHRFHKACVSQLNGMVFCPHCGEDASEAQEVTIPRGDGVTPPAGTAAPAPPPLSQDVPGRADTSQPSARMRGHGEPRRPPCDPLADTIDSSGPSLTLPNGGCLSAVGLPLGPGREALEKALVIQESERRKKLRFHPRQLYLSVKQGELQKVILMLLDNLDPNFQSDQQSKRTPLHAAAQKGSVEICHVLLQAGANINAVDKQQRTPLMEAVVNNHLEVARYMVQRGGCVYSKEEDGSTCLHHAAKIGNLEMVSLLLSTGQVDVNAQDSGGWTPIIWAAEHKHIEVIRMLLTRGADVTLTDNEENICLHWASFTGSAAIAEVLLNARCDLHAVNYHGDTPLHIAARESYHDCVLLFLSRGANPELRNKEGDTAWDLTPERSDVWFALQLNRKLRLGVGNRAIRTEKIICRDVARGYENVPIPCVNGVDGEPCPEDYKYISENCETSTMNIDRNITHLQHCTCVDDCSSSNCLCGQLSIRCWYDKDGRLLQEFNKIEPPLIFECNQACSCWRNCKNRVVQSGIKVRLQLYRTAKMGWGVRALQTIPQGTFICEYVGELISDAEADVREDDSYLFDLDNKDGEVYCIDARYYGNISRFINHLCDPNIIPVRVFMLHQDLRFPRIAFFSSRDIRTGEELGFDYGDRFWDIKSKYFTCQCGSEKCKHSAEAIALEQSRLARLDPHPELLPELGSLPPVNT
# T1 sequence (Q9H9B1 2-1298 limits assumed): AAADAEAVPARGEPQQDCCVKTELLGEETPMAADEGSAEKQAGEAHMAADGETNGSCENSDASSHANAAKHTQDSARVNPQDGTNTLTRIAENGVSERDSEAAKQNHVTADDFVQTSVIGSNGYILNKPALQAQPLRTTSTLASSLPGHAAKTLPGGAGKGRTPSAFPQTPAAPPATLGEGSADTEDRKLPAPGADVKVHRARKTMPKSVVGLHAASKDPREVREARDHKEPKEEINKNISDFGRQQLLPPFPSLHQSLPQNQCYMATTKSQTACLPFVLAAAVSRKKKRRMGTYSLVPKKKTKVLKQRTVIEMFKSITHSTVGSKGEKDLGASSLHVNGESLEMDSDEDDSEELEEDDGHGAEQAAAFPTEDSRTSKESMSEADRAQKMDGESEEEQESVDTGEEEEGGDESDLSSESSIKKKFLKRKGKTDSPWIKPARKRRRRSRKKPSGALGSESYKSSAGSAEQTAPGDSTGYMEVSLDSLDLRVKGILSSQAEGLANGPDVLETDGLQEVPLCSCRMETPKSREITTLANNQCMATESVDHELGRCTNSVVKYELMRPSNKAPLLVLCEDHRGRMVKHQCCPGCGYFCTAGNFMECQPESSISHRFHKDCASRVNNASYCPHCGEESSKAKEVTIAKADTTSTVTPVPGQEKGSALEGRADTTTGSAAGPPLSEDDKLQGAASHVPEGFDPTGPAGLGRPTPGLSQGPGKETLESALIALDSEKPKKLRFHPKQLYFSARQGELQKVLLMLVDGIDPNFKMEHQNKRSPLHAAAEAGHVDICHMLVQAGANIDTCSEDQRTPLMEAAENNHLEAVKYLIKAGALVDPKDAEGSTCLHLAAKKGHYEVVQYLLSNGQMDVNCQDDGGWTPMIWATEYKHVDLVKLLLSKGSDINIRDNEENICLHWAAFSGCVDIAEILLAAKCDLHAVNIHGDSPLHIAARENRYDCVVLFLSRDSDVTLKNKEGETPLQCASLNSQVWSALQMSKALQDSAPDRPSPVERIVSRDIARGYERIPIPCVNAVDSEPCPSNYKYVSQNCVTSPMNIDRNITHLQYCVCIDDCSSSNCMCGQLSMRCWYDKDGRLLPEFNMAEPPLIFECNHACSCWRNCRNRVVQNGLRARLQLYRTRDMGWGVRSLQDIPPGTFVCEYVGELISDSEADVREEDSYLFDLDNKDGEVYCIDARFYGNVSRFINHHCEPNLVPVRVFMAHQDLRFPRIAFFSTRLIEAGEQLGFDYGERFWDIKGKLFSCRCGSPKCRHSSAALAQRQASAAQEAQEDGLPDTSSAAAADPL
# 3×MBT domain of L3MBTL1 = experiment: Triple SILAC pull-down, 3xMBT/3xMBTD355N ratio (cytoplasmic, nuclear and chromatin fractions of 293T cells); type: binding, human; details: SILAC ratio, pull-down 3xMBT vs 3xMBTD355N; for 3xMBT/D355N UNC Heavy: experiment with UNC0638 in heavy SILAC media; for 3xMBT/D355N UNC Light: experiment with UNC0638 in light SILAC media;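 as to all read-outs here: proteins quantified with MaxQuant, requiring at least two unique peptides and quantification in both label directions, normalized to the mean of proteins from a digested loading control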
Molecule,Relative to UNC0638 UNC Heavy (G9a and GLP),Relative to UNC0638 UNC Light (G9a and GLP),Relative to UNC0638 Average (G9a and GLP),3xMBT/D355N UNC Heavy (3×MBT domain of L3MBTL1),3xMBT/D355N UNC Light (3×MBT domain of L3MBTL1),Candidate G9a/GLP target (G9a and GLP; reduced association with 3xMBT after UNC0638 treatment)
B1,0.11 log base 2,0.18 log base 2,0.14 log base 2,3.17 log base 2,3.31 log base 2,
B2,0.20 log base 2,0.08 log base 2,0.14 log base 2,3.19 log base 2,2.52 log base 2,
B3,0.09 log base 2,0.20 log base 2,0.14 log base 2,2.50 log base 2,3.36 log base 2,
B4,0.69 log base 2,0.48 log base 2,0.59 log base 2,1.67 log base 2,1.31 log base 2,✓

# From patent US20140274782A1, “AFFINITY REAGENTS AND METHODS FOR DETECTION, PURIFICATION, AND PROTEOMIC ANALYSIS OF METHYLATED PROTEINS” (The Board of Trustees of the Leland Stanford Junior …, priority 2013, published 2014)
